Values quoted from earlier work as cited in paper PMC12748512.
Read-outs that look alike come from different tables or passages of the source.

How the values were obtained:
[1] = biological target: IL-2Rβ-γc complex (Homo sapiens) (UniProt P14784)
[2] = biological target: IL-2Rβ-γc complex (Homo sapiens) (UniProt P14784); remark: listed apart in the source

Chain of UniProt P14784 (P14784 27-240, chain 1 of 2): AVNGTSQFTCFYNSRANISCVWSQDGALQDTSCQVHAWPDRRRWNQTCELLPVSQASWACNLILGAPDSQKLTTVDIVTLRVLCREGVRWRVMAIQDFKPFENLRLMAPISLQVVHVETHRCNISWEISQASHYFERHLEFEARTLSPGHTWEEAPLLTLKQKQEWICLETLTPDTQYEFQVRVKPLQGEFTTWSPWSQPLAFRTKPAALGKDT
Chain of UniProt P14784 (P31785 23-262, chain 2 of 2, further chain): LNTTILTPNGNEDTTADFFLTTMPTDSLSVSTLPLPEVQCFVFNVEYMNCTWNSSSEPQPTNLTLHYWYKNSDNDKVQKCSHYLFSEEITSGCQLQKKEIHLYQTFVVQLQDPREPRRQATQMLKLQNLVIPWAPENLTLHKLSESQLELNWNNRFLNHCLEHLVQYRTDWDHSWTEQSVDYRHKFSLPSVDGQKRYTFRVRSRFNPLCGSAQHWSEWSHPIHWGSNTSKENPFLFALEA

Kd [1]	Kd [2]	Substance
1 nM	–	IL-2 (from UniProt P60568)
–	1 nM	IL-15 (from UniProt P40933)
